Test results as given in article PMC3917317 (Cell, 2013).
The star is where a group is joined. FITC = O=C1OC2(c3ccc(O)cc3Oc3cc(O)ccc32)c2ccc(NC(=S)*)cc21; βAla = NCCC(=O)O

Tests used:
[1] = molecular target: T1, His-EcGlpG C104A+H254A (inactive mutant) (Escherichia coli, UniProt P09391 1-276, C104A | H254A); test: pull-down
T1 sequence (looked up): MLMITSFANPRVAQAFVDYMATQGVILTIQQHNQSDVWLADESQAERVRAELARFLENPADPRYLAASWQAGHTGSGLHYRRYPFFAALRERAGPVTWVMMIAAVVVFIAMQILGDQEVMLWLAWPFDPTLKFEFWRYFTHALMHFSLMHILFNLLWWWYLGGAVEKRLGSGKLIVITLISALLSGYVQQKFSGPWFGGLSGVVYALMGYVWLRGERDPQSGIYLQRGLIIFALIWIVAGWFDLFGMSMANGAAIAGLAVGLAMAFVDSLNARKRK

[2] = molecular target: HA-EcGlpG S201A+H254A (inactive mutant) (Escherichia coli, UniProt P09391 1-276, S201A | H254A); test: SEC

B1: FITC-TatA (Providencia stuartii TatA residues 1-33 of 97) (peptide)
chain: {FITC-βAla}-MESTIATAAFGSPWQLIIIALLIILIFGTKKLR-NH2
SMILES: CC[C@H](C)[C@H](NC(=O)[C@H](CC(C)C)NC(=O)[C@@H](NC(=O)[C@@H](NC(=O)[C@H](CC(C)C)NC(=O)[C@H](CC(C)C)NC(=O)[C@H](C)NC(=O)[C@@H](NC(=O)[C@@H](NC(=O)[C@@H](NC(=O)[C@H](CC(C)C)NC(=O)[C@H](CCC(N)=O)NC(=O)[C@H](Cc1c[nH]c2ccccc12)NC(=O)[C@@H]1CCCN1C(=O)[C@H](CO)NC(=O)CNC(=O)[C@H](Cc1ccccc1)NC(=O)[C@H](C)NC(=O)[C@H](C)NC(=O)[C@@H](NC(=O)[C@H](C)NC(=O)[C@@H](NC(=O)[C@@H](NC(=O)[C@H](CO)NC(=O)[C@H](CCC(=O)O)NC(=O)[C@H](CCSC)NC(=O)CCNC(=S)Nc1ccc2c(c1)C(=O)OC21c2ccc(O)cc2Oc2cc(O)ccc21)[C@@H](C)O)[C@@H](C)CC)[C@@H](C)O)[C@@H](C)CC)[C@@H](C)CC)[C@@H](C)CC)[C@@H](C)CC)[C@@H](C)CC)C(=O)N[C@@H](Cc1ccccc1)C(=O)NCC(=O)N[C@H](C(=O)N[C@@H](CCCCN)C(=O)N[C@@H](CCCCN)C(=O)N[C@@H](CC(C)C)C(=O)N[C@@H](CCCNC(=N)N)C(N)=O)[C@@H](C)O
Kd [1]: ≥ 1000 µM | Kd [2]: 191 ± 29.4 µM
